This passage reports binding result and Kd results from PMC6107238, “Conformational plasticity of the intrinsically disordered protein ASR1 modulates its function as a drought stress-responsive gene” (PLoS ONE, 2018).

Data set [1] concerns the molecule itself. Kind of data set: SDS-PAGE; purified ASR1 at high protein concentrations on SDS-PAGE.
The target of data set [2] is T1, ASR1 (Abscisic, Stress, Ripening 1) (Solanum lycopersicum (tomato), UniProt Q08655 1-115).
T1 sequence: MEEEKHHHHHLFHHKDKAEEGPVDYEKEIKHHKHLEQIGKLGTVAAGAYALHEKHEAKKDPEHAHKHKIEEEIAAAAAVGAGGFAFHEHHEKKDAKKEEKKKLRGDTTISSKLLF
Nature of the data set: fluorescence anisotropy; 100 uM ZnCl2; Buffer H: 100 mM NaCl, 20 mM HEPES pH 7.4, with 100 uM ZnCl2; 250 nM FITC-dsDNA; anisotropy temperature not stated (CD at 25 C). The note with it: protein: recombinant; tags: untagged in the main text (original His6 removed); label: 5' FITC on one strand; blunt. A general note: Polarisation of emitted light reports the rotation of a fluorescent probe.

B1: Tomato ASR1 (Abscisic, Stress, Ripening protein 1), untagged recombinant protein (natural protein, UniProt Q08655 1-115, looked up)
chain: T1 sequence
notes: ASR1 of tomato; 'peaks corresponding to the expected full-length protein were pooled'; 12.7 kDa by SLS; The cloning of ASR1 alone is not described; also called untagged ASR1; ASR1 recombinant protein
In the case of B1, in data set [1], the binding result is given as “binds”.

B2: FITC-oligoC (dsDNA)
DNA 1: TATTGGGCTTGG
DNA 2: CCAAGCCCAATA
For orientation: Kd means the concentration at which binding is half-saturated. B2: the dissociation constant Kd in data set [2] was determined as 216 ± 10 nM.

B3: FITC-oligoS (dsDNA)
DNA 1: AGTTCTGGTTGG
DNA 2: CCAACCAGAACT
As for B3, the dissociation constant Kd in data set [2] was determined as 1080 ± 46 nM.
